± gives the uncertainty stated by the source.
Test: protein stability index of a GFP-peptide fusion (yeast GPS) (PSI 1-4); higher = more stable; sorted into four equal gates, so the index is relative within each strain
Summary of the method: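 Tiled 17-residue yeast protein peptides were fused downstream of GFP in a plasmid that also expresses Cherry, and the pooled library was carried in yeast. Mid-log cultures in leucine-free medium were sorted into four equal gates by GFP/Cherry fluorescence ratio, and plasmids from each gate were PCR-amplified and Illumina-sequenced, with reads assigned to strains by barcodes. The protein stability index for each peptide was each gate's read frequency times its gate number, summed.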

Sequence	protein stability index (doa10∆)	protein stability index (pdr5∆)	protein stability index (san1∆)	protein stability index (ubr1∆)
ILNELQPNARALERYDE [SMC1]	3.3 ± 0.22	3.61 ± 0.11	3.27 ± 0.078	3.49 ± 0.086
DEIATIQSKRLRNKIAG [RPS17A]	3.15 ± 0.11	3.13 ± 0.099	3.33 ± 0.066	3.48 ± 0.14
EDPDQEECSGRRWNKLC [YGL100W/SEH1]	2.24 ± 0.07	2.16 ± 0.083	1.88 ± 0.1	2.27 ± 0.057
KYHKEQFIKSNFEKILL [SRB8]	2.21 ± 0.085	2.32 ± 0.047	1.95 ± 0.075	2.37 ± 0.057
AALYKEVYNVIASDGSY [RPO21]	2.34 ± 0.089	1.77 ± 0.1	2.22 ± 0.15	3.06 ± 0.12
FQIIDTLLPGLQDEVMN [RPS2]	2.32 ± 0.082	1.72 ± 0.059	2.22 ± 0.091	2.09 ± 0.05
NVVVKWQGKPVFIRHRT [RIP1]	3.35 ± 0.25	–	3.41 ± 0.07	2.88 ± 0.27
GGVMANRKIARMRHSKR [YOR098C/NUP1]	3.31 ± 0.13	3.6 ± 0.085	3.34 ± 0.09	3.32 ± 0.1
MSAQKAPKWYPSEDVAA [RPL6A]	2.03 ± 0.12	2.35 ± 0.13	1.57 ± 0.27	2.1 ± 0.071
YTDFENTFQKTVEPVYQ [FAS1]	2.15 ± 0.099	2.44 ± 0.1	2.03 ± 0.15	2.73 ± 0.084
QIVDIRNKRAVQLPILK [YJL039C/NUP192]	2.2 ± 0.1	2.04 ± 0.053	1.43 ± 0.056	1.92 ± 0.058
QDMQLKIWSVKDGSNPR [RPN14]	2.99 ± 0.097	2.86 ± 0.088	2.45 ± 0.1	2.62 ± 0.075
QVIFEIFEISLQRKDYT [YML103C/NUP188]	2 ± 0.053	2.19 ± 0.056	2.51 ± 0.069	2.84 ± 0.061
PGTGKTLLARAVAHHTD [RPT6]	1.78 ± 0.05	2.76 ± 0.06	1.53 ± 0.11	1.49 ± 0.057
NRDRSFQLLEPLSTYNK [PGD1]	3 ± 0.051	2.95 ± 0.062	2.93 ± 0.053	2.72 ± 0.045
IASKMSLAPEADLDSLI [RPT3]	2.62 ± 0.1	2.81 ± 0.13	2.1 ± 0.12	3.07 ± 0.19
TEDIREGDQAEVIFSFE [YMR129W/POM152]	3.47 ± 0.087	3.39 ± 0.072	3.19 ± 0.066	3.44 ± 0.071
IGTHHAGLTRSDRSLSE [BRR2]	2.2 ± 0.11	2.05 ± 0.2	1.47 ± 0.14	2.62 ± 0.07
PKNVPTSKWLNSITSGG [YDL116W/NUP84]	2.35 ± 0.072	2.56 ± 0.068	2.23 ± 0.14	2.6 ± 0.064
KEDAKATMENIQKGKFT [SRP54]	3.07 ± 0.055	3.29 ± 0.057	3.09 ± 0.062	3.08 ± 0.051
LEKGNNPSVKQGEVGAV [SWP82]	2.89 ± 0.076	3.13 ± 0.083	3.44 ± 0.052	2.7 ± 0.074
GLPLGIAEEKMWSQFQT [YGR119C/NUP57]	2.84 ± 0.14	–	–	3.05 ± 0.19
GSCTGKFGYILCVLDYD [RPB7]	2.3 ± 0.084	2.54 ± 0.061	2.38 ± 0.067	2.31 ± 0.055
AQQLRNQQQQQQQQQQQ [GAL11]	2.98 ± 0.095	2.92 ± 0.11	2.92 ± 0.094	3.04 ± 0.065
CYQFAEYLFKPQLISDK [ARP7]	2.38 ± 0.06	2.14 ± 0.049	2.2 ± 0.064	2.11 ± 0.04

Sequence	protein stability index (doa10∆)	protein stability index (pdr5∆)	protein stability index (san1∆)	protein stability index (ubr1∆)
SPTYSPTSPAYSPTSPS [RPO21]	3.08 ± 0.045	3.05 ± 0.042	3 ± 0.032	2.93 ± 0.033
KIIALQPNEISFKYLSN [RGR1]	2.43 ± 0.12	2.38 ± 0.12	–	2.48 ± 0.098
QMAKDVTTFLNWCAEPE [CYT1]	3.4 ± 0.068	3.25 ± 0.067	3.04 ± 0.098	3.46 ± 0.073
EALFQSRPDILSKIKFP [YCG1]	2.75 ± 0.067	2.62 ± 0.057	2.82 ± 0.067	3.13 ± 0.058
KITTSTEDQKVTTNINW [SRP68]	3.13 ± 0.078	3.13 ± 0.072	3.21 ± 0.068	3.11 ± 0.054
LLEISCKQWEISNMLKK [CSI1]	1.5 ± 0.052	1.58 ± 0.048	1.75 ± 0.077	1.5 ± 0.046
SNRLLMDVDQFDFLDDG [YJR042W/NUP85]	1.49 ± 0.097	1.37 ± 0.15	1.69 ± 0.27	1.23 ± 0.099
QLYKARMSIKLLRLASK [POP1]	1.54 ± 0.064	1.39 ± 0.072	1.4 ± 0.11	1.14 ± 0.048
RLRALQLYFQKNGAQDL [RRI2]	1.7 ± 0.06	1.95 ± 0.076	1.95 ± 0.087	2.44 ± 0.044
AVHSIIALSRRFLLNGR [YDL116W/NUP84]	2.11 ± 0.086	1.56 ± 0.069	2.06 ± 0.14	1.99 ± 0.085
DICLKLNLDSEQTVEYM [RPN3]	3.37 ± 0.23	3.28 ± 0.2	2.97 ± 0.24	3.07 ± 0.092
TLDNIDDINKAKAVWEN [ARP9]	3.14 ± 0.058	3.18 ± 0.062	3.29 ± 0.051	3.27 ± 0.058
NIAQMIPGMSNMMNQVG [SRP54]	2.47 ± 0.064	2.6 ± 0.076	2.67 ± 0.06	2.7 ± 0.078
QLGYGKFLILNENPINK [NUT1]	2.92 ± 0.12	2.53 ± 0.12	2.71 ± 0.077	2.84 ± 0.13
TGPKQQEITTNLENHFK [SCL1]	2.94 ± 0.044	2.97 ± 0.037	3.04 ± 0.032	2.9 ± 0.03
VRSGVSKSAPSKKISNT [YAR002W/NUP60]	3.28 ± 0.085	3.25 ± 0.088	3.26 ± 0.049	3.38 ± 0.056
QRDAVTLFCCLLRSRLA [RPO21]	1.78 ± 0.045	1.92 ± 0.044	1.85 ± 0.057	1.98 ± 0.041
TDQILQLLKEDSEKRNK [RRP45]	3.12 ± 0.16	3.3 ± 0.29	3.52 ± 0.098	3.36 ± 0.11
DLESMGLTQLYKKSTEN [MED7]	2.9 ± 0.071	3.13 ± 0.067	2.81 ± 0.067	2.9 ± 0.047
LWPVAIGLIALSATGTR [YJR042W/NUP85]	1.75 ± 0.25	–	1.36 ± 0.23	–
KEIMDKIITSRPLQKIM [SIN4]	2.13 ± 0.12	1.23 ± 0.068	1.45 ± 0.18	1.06 ± 0.065
LKVNVTLDNPLLVDKDA [YJL039C/NUP192]	3.02 ± 0.077	2.93 ± 0.065	3 ± 0.041	2.7 ± 0.051
LCDIDEVSDFDEMYELT [DIB1]	2.43 ± 0.19	3.08 ± 0.1	2.65 ± 0.12	1.9 ± 0.16
TKDPDEQQLFEIFAFGN [CSN9]	3.18 ± 0.13	3.09 ± 0.088	3.17 ± 0.052	2.83 ± 0.053
GSYLCTSSTPSPIKNGS [YOR098C/NUP1]	2.95 ± 0.054	2.94 ± 0.054	2.78 ± 0.053	2.97 ± 0.04

Sequence	protein stability index (doa10∆)	protein stability index (pdr5∆)	protein stability index (san1∆)	protein stability index (ubr1∆)
NWWHSEFEIPVSFNGFK [BRR2]	1.49 ± 0.098	1.32 ± 0.068	1.14 ± 0.17	1.34 ± 0.058
AQQQQLSNYPQQIQEQV [YGR119C/NUP57]	2.82 ± 0.059	3.09 ± 0.058	2.71 ± 0.046	3.02 ± 0.044
VSLLKKNWQNVGSLVVK [RPL1A]	1.15 ± 0.049	1.39 ± 0.056	1.36 ± 0.12	1.32 ± 0.053
KAGRAFHKYRLKRNSWP [RPL2A]	2.87 ± 0.082	2.88 ± 0.063	2.13 ± 0.058	2.05 ± 0.064
PTIEEDLTRVYKAISAQ [FAS2]	2.22 ± 0.051	2.21 ± 0.041	2.75 ± 0.056	2.32 ± 0.042
QSGSNSGNNSKKRKNKS [ROX3]	2.96 ± 0.17	3.09 ± 0.097	3.02 ± 0.095	3.15 ± 0.066
KKTCSSCGYPSAKTRSH [RPL37B]	2.74 ± 0.066	2.51 ± 0.044	2.63 ± 0.084	1.99 ± 0.04
APSIIFMDEIDSIGSTR [RPT6]	2.76 ± 0.063	2.89 ± 0.088	2.83 ± 0.058	2.93 ± 0.054
EMERIVKNLTKYLSDIM [SRP68]	2.76 ± 0.25	2.53 ± 0.099	–	2.06 ± 0.074
LSTLEPSTSITLAERQQ [RPN9]	2.9 ± 0.055	2.91 ± 0.058	2.58 ± 0.062	2.86 ± 0.036
FKSALANLEDIIFEIEK [RRP6]	3.21 ± 0.13	3.13 ± 0.096	3.2 ± 0.071	2.83 ± 0.12
TICIELKTVLHNGRDKI [RGR1]	1.55 ± 0.051	1.62 ± 0.062	1.78 ± 0.085	1.78 ± 0.067
GIHILLYSGLIIDEIIT [RPC82]	1.15 ± 0.094	1.41 ± 0.25	–	1.21 ± 0.082
EEGYSGVEVRVTPTKTE [RPS3]	2.18 ± 0.16	3.15 ± 0.11	2.88 ± 0.091	3.11 ± 0.08
AIKYGYEDSGSTYKHDR [SRB4]	3.22 ± 0.17	–	3.43 ± 0.14	3.15 ± 0.14
LAKKTHKQELQDLILDL [SMC4]	3.07 ± 0.083	3.25 ± 0.088	3.14 ± 0.055	3.05 ± 0.067
EVHDLIGFITSGTYHLN [POP1]	2.69 ± 0.15	2.64 ± 0.14	2.11 ± 0.13	2.48 ± 0.11
QYGYSGSSAGMNGRSLT [SNF6]	3.14 ± 0.07	3.11 ± 0.061	3.17 ± 0.046	3.1 ± 0.042
LHVPNLQPPKTSSRGRD [SMC4]	2.44 ± 0.044	2.52 ± 0.043	2.29 ± 0.054	2.18 ± 0.039
MPPKEDWEKYKAPLEDD [RPT1]	3.21 ± 0.12	3.29 ± 0.21	3.38 ± 0.069	3.27 ± 0.19
KRNGSTLEQKVNLENPI [FAS1]	2.2 ± 0.098	2.37 ± 0.12	2.21 ± 0.11	3.09 ± 0.089
EKSAYKFFHNGMIYNKL [FAS2]	2.92 ± 0.086	2.81 ± 0.07	2.88 ± 0.071	2.83 ± 0.064
EIYYDPDPRSTVIPEDE [RPO21]	3.04 ± 0.11	3.07 ± 0.21	3.23 ± 0.14	3.06 ± 0.098
NQNSDMKKKLELISYRN [SRB8]	2.91 ± 0.048	3.04 ± 0.059	2.93 ± 0.051	3.08 ± 0.04
LLKLLTRLVQLREFRIT [GRR1]	1.89 ± 0.053	1.27 ± 0.044	1.23 ± 0.13	1.08 ± 0.052

From the supplement of paper PMC9732359
